Results on 18 molecules are retold here after US20220144922A1 (Adimab, published 2022).

For assay [1], the target named is RSV F protein of subtype A strain A2, on virus (respiratory syncytial virus subtype A …, UniProt P03420 26-574). Kind of assay: cell-based or functional assay.
For assay [2], the target named is T1, prefusion-stabilized RSV F ectodomain (DS-Cav1), subtype B (respiratory syncytial virus subtype B).
T1 construct: extracellular domain; also called Prefusion subtype B
Description: BLI, IgG on sensor.
Description: IgG binding to DS-Cav1 and FA FP was determined by BLI measurements using a FortéBio Octet HTX instrument (Pall Life Sciences). […] Data was analyzed using the ForteBio Data Analysis Software 7. The data was fit to a 1:1 binding model to calculate an association and dissociation rate, and KD was calculated using the ratio kd/kₐ.

Assay [3] addresses RSV F protein of subtype B strain 18537, on virus (respiratory syncytial virus subtype B …, UniProt P13843 26-574). Description: cell-based or functional assay.

B1: ADI-15618 (antibody, V domains shown)
VH: EVQLVETGGGLIQPGGSLRLSCVASGFSLRNYALGWLRQAPGKGLEWVSGGYYGDVYYTDSVKGRFAVSRDNSGDTVYLEMDNLRVEDTAVYYCARMETVTTDAGSGWDWYFEVWGRGTLVTVSS
VL: ETTLTQSPATLSLSPGDWATLSCRASQSVGTYLAWYQHKPGQAPRLLIHDASNRASDIPSRFSGSGSGTDFTLTIRGLEPEDFAVYYCQQHRDWRPVTFGGGTKVEIK
notes: IgG
As to B1, the “Neut IC50 (ug/ml) subtype A” value in assay [1] was 0.003 µg/mL. In assay [2], the Kd was determined as 0.535 nM.

B2: ADI-15570 (antibody, V domains shown)
VH: QVQLVESGGGVVQPGKSLRLSCAASGFTFSSYPMHWVRQAPGAGLEWMAVISYDGANKYYEDSLKGRFTISRDNSKDTLFLQMNNLRPEDTAVYYCARGRTSHINTPETKWGQGTLVTVSS
VL: EIVLTQSPTLVSASTGDTVTISCRMSQGINGYLAWFQKKPGKAPDLLIYGASTLQDGVPSRFSGSGSGTDFTLTISRLQSEDLATYYCQQYYSLPWTFGQGTKVDIK
Take B2: the “Neut IC50 (ug/ml) subtype B” value in assay [3] is greater than 10 µg/mL. In addition, the “Neut IC50 (ug/ml) subtype A” value in assay [1] was 13.3 µg/mL.

B3: ADI-15574 (antibody, V domains shown)
VH: QVQLVQSGGGLVKPGGSLRLSCAASGFTISGYNMFWVRQPPGKGLEWVSSITAGSSYLNYADSVKGRFIVSRDNAKNSLYLQMNSLRAEDTAVYFCARAPLLPAMMDLWGQGTTVTVSS
VL: QSVLTQPPSVSGAPGQRVTISCTGSSSNIGAGYDVHWYQQLPGTAPKLLIYTNNNRPSGVPDRFSGSKSGTSASLAITGLQAEDEADYYCQSYDRSLNGYVFGTGTKLTVL
notes: IgG; also called Antibody Number 144
Turning to B3, the “Neut IC50 (ug/ml) subtype B” value in assay [3] was 0.226 µg/mL. The “Neut IC50 (ug/ml) subtype A” value in assay [1] turned out to be 0.176 µg/mL. In addition, the Kd in assay [2] was 0.46 nM.

B4: ADI-15635 (antibody, V domains shown)
VH: EVQLLESGGGLVKPGGSLRLSCAASGFTISGYNMFWVRQPPGKGLEWVSSITAGSSYLNYADSVKGRFIVSRDNAKNSLYLQMNSLRAEDTAVYFCARAPLLPAMMDLWGQGTTVTVSS
VL: QSVLTQPPSVSGAPGQRVTISCTGSSSNIGAGYDVHWYQQLPGTAPKLLIYTNNNRPSGVPDRFSGSKSGTSASLAITGLQAEDEADYYCQSYDRSLNGYVFGTGTKVTVL
notes: IgG; also called Antibody Number 200
For B4, the “Neut IC50 (ug/ml) subtype B” value in assay [3] was determined as 0.226 µg/mL. The “Neut IC50 (ug/ml) subtype A” value in assay [1] stood at 0.115 µg/mL. The molecule further came in with a dissociation constant Kd in assay [2] of 0.431 nM.

B5: ADI-15648 (antibody, V domains shown)
VH: EVQLVESGGGLVKPGGSLRLSCAASGFTISGYNMFWVRQPPGKGLEWVSSITAGSSYLNYADSVKGRFIVSRDNAKNSLYLQMNSLRAEDTAVYFCARAPLLPAMMDLWGQGTTVTVSS
VL: QSVVTQPPSVSGAPGQRVTISCTGSSSNIGAGYDVHWYQQLPGTAPKLLIYTNNNRPSGVPDRFSGSKSGTSASLAITGLQAEDEADYYCQSYDRSLNGYVFGTGTTVTVL
notes: IgG; also called Antibody Number 212
B5: in assay [3], the “Neut IC50 (ug/ml) subtype B” value turned out to be 0.145 µg/mL. Further, the “Neut IC50 (ug/ml) subtype A” value in assay [1] was 0.064 µg/mL. The same molecule showed a Kd in assay [2] of 0.438 nM.

B6: ADI-15607 (antibody, V domains shown)
VH: QVQLVQSGGGLVQPGGSLRLSCAASRFTFSSYAMSWVRQAPGKGLEWVSTISGSGISTYYADSVKGRFTISRDNSKNTLYLQMNSLSAEDTAVYYCAKELREYYYDSSGFDYWGQGTLVTVSS
VL: QPVLTQSRSVSGSPEQSVTISCTGTSSDVGGYNYVSWYQQHPGKAPKLMIYDVSKRPSGVPDRFSGSKSGNTASLTISGLQAEDESDYYCCSYAGTYTYVFGTGTKVTVL
With B6, the “Neut IC50 (ug/ml) subtype B” value in assay [3] is greater than 10 µg/mL. Further, in assay [1], the “Neut IC50 (ug/ml) subtype A” value is greater than 10 µg/mL.

B7: ADI-15557 (antibody, V domains shown)
VH: QVQLVQSGAEVKRPGSSVKVSCKASGGTFSSFAINWVRQAPGQGLEWMGGLIPIFGTPNNAQKFQGRVTITADESTSTAYMELSSLRSEDTAVYYCASLRYFDWQPGGSYWFDPWGQGTLVTVSS
VL: QPGLTQPPSVSVAPGKTARIACGGDNIGTKGVHWYQQKPGQAPVLVIYYDSDRPSGIPERFSGSNSGNTATLTISGVEAGDEADYYCQVWDTIDDHKDGLFGGGTKLTVL
notes: IgG
Turning to B7, the “Neut IC50 (ug/ml) subtype B” value in assay [3] stood at 0.028 µg/mL. Moreover, the “Neut IC50 (ug/ml) subtype A” value in assay [1] was 0.041 µg/mL. The molecule also came in with an equilibrium dissociation constant (Kd) in assay [2] of 0.61 nM.

B8: ADI-15589 (antibody, V domains shown)
VH: QVQLQQWGAGLLKPSETLSLTCAVYGGSFSGYYWGWIRQPPGKGLEWIGEVNHSGTSNYNPSLTSRVTISVDPSKKQLSLKLNSVTAADTAVYYCARAPWYTHAMDVWGQGTTVTVSS
VL: QSVLTQPASVSGSPGQSITISCTRTSSDVGAYSYVSWYQQHPGKAPKLMIYDVNNRPSGVSNRFSGSKSGNTASLTISGLQAEDEADYYCSSYTNSNTLGVFGGGTKLTVL
For the molecule B8, the “Neut IC50 (ug/ml) subtype B” value in assay [3] worked out at 18.5 µg/mL. Further, the “Neut IC50 (ug/ml) subtype A” value in assay [1] worked out at 0.876 µg/mL.

B9: ADI-15590 (antibody, V domains shown)
VH: EVQLLESGGLVVQPGGSLRLSCAASGFIFDDYTMHWVRQAPGKGLEWISLISWDSLDTYYAGSVQGRFTISRDNSRNSLYLRMNSLRPEDTALYYCAKTKYRGTYYYFDSWGQGTLVTVSS
VL: DIRVTQSPSSLSASVGDRVTITCQASQDISNYLNWYQQKPGKAPKLLIYDASNLETGVPSRFSGRGSGTDFTFTISSLQPEDIATYYCQQYDNLPPVTFGPGTKVEIK
On to B9, for which, in assay [3], the “Neut IC50 (ug/ml) subtype B” value was greater than 10 µg/mL. For the same molecule, in assay [1], the “Neut IC50 (ug/ml) subtype A” value was greater than 10 µg/mL.

B10: ADI-15597 (antibody, V domains shown)
VH: QVQLVQSGGGLVKPGGSLRLSCAGSGFTFSSYTLNWVRQAPGKGLEWVSSISSSSTYIYYADSVKGRFTISRDNAKNSLHLQMNSLRAEDTAVYYCARADYDRSVYHLNWFDPWGQGTLVTVSS
VL: QSVLTQPPSVSGAPGQRVTISCTGSSSNIGAGYDVHWYQQLPGAAPKLLIYGNTNRPSGVPDRFSGSKSGTSASLAITGLQADDEADYYCQSYDSSLSGTWVFGGGTKLTVL
notes: IgG
With B10, in assay [3], the “Neut IC50 (ug/ml) subtype B” value was 1.79 µg/mL. Also, the “Neut IC50 (ug/ml) subtype A” value in assay [1] was 0.163 µg/mL. Besides, in assay [2], the Kd was 6.09 nM.

B11: ADI-15615 (antibody, V domains shown)
VH: EVQLVETGGGLVKPGGSLRLSCAGSGFTFSSYTLNWVRQAPGKGLEWVSSISSSSTYIYYADSVKGRFTISRDNAKNSLHLQMNSLRAEDTAVYYCARADYDRSVYHLNWLDPWGQGTLVTVSS
VL: QPVLTQPPSVSGAPGQRVTISCTGSSSNIGAGYDVHWYQQLPGAAPKLLIYGNTNRPSGVPDRFSGSKSGTSASLAITGLQADDEADYYCQSYDSSLSGTWVFGGGTKLTVL
notes: IgG; also called Antibody Number 180
As for B11, the “Neut IC50 (ug/ml) subtype B” value in assay [3] turned out to be 1.68 µg/mL. Further, in assay [1], the “Neut IC50 (ug/ml) subtype A” value came out at 0.977 µg/mL. In assay [2], this molecule returned a Kd of 11.6 nM.

B12: ADI-15555 (antibody, V domains shown)
VH: EVQLVESGGALVKPGGSLRLSCVGTGLTFTTAYMSWARQAPGKGLEWVGRIKSKSDGGTTDYPTPVKGRFTISRDESKNTLYLQMNSLKIEDTAVYYCTTDRGITARPIFDSWGQGTLVTVSS
VL: QSVLTQPPSVSGALGRRVTISCTGSSSNIGAGYDVHWYRQLPGTAPKLLIYGNTKRPSGVPDRFSGSKYATSASLAITGLQAEDDADYYCQSYDGGLSGYVFGTGTKLTVL
On to B12, for which the “Neut IC50 (ug/ml) subtype B” value in assay [3] was determined as 2.45 µg/mL. Further, the “Neut IC50 (ug/ml) subtype A” value in assay [1] was determined as 2.19 µg/mL.

B13: ADI-15581 (antibody, V domains shown)
VH: QVQLVQSGAEVKKPGSSMKVSCQASGGPFSTYTISWVRQAPGQGLEWMGGIIPVFGTPNYAQKFHGRVTITADQSTSTAYMELSSLRSEDTAVYYCAGAPYPMDVWGQGTTVTVSS
VL: EIVLTQSPATLSLSPGERATLSCRASQSVASSLAWYQQKPGQAPRLLIYDASNRATGIPARFSGSGSGTDFTLTISSLEPEDFAVYYCQQRTNWQGLSFGGGTKVDIK
B13: in assay [3], the “Neut IC50 (ug/ml) subtype B” value was found to be 6.12 µg/mL. The “Neut IC50 (ug/ml) subtype A” value in assay [1] was found to be 8.25 µg/mL.

B14: ADI-15579 (antibody, V domains shown)
VH: EVQLVESGGGLVQPGRSLRLSCAAFGFTFDDYAMHWVRQAPGKGLEWVSGISWNSGFIGYADSVKGRFTISRDNAKNSLSLQMNSLRTEDTALYYCAKTDGAVAVDGPFDYWGQGTLVTVSS
VL: EIVLTQSPSSLSASVGDRVTITCRASQSISGYLSWYQQKPGKAPKLLIHSTSSLQSGVPSRFSGSGSGTDFTLTITSLQPEDFATYYCQQSYIAPPTFGQGTKVEIK
In the case of B14, in assay [3], the “Neut IC50 (ug/ml) subtype B” value is greater than 10 µg/mL. Further, the “Neut IC50 (ug/ml) subtype A” value in assay [1] came to 8.02 µg/mL.

B15: ADI-15558 (antibody, V domains shown)
VH: QVQLVQSGGEVKKPGASVKVSCKASGYTFTTYGISWVRQAPGHGLEWLGWISPKNGNTKYAQKVQGRVTMTIDPTTSTAYMELRSLRSDDTAMYYCARDYIVAIVAALPHGMDVWGQGTLVTVSS
VL: QSVLTQPPSLSVSPGQTASISCSGDQLGNKYVCWYQQKPGQSPVLVIYQDSRRPSGVPERFSGSNSGNTATLTVGGTQPMDEADYYCQAWDSSIRVFGGGTKVTVL
notes: IgG
B15 registered a Kd in assay [2] of 0.94 nM.

B16: ADI-15572 (antibody, V domains shown)
VH: QVQLVQSGAEAKKPGASVKVSCKASGYTFTSYYLHWVRQAPGQGPEWMGIINPGGGSTELSQKFQGRVTLTRDTSTSTVYMEVTSLTSEDTAVYYCARARIQLWAPNYYGMDVWGQGTTVTVSS
VL: DIQLTQSPSFLSASVGDRVTITCRASHGITSYLAWYQQKPGNAPKLLIYAASTLQSGVPSRFSGSGSETQFTLTISGLQPEDFATYYCQQLNRYPLTFGQGTKVEIK
For B16, in assay [3], the “Neut IC50 (ug/ml) subtype B” value was 6.25 µg/mL. Further, in assay [1], the “Neut IC50 (ug/ml) subtype A” value came to 9.48 µg/mL.

B17: ADI-15616 (antibody, V domains shown)
VH: QVQLVQSGGGLVKPGGSLRLSCAASGFTFSDHYMTWIRQAPGKGLEWVSYISSTSSFTNYADSVKGRFTISRDNAKKSLYLQMNSLRAEDTAVYYCARDRNWGYAYGSDYWGQGTLVTVSS
VL: DIRLTQSPDTLSLSPGERATLSCRASQSVSSTYLAWYQQKPGQAPRLLIYGAFGRATGIPDRFSGSGSGTDFTLTISRLEPEDFAVYYCQLYGNSRTFGQGTKLEIK
notes: IgG
As to B17, the “Neut IC50 (ug/ml) subtype B” value in assay [3] amounted to 5.58 µg/mL. Moreover, the “Neut IC50 (ug/ml) subtype A” value in assay [1] is 4.52 µg/mL. Also, the dissociation constant Kd in assay [2] turned out to be 1.74 nM.

B18: ADI-15595 (antibody, V domains shown)
VH: EVQLVESGPTLVKPTQTLTLTCTFSGFSLTTIGVGVGWIRQPPGKALEFLGIVYWDDDKRYSPSLKSRLTITKDTSKNQVVLTMTTLAPEDTGTYYCTYARYSSALFGGYYFHSWGQGTLVTVSS
VL: QSVLTQPPSVSVAPGQTAKITCGGNDIGSRSVHWYQQKPGQAPVLVVYDNSDRPSGIPERFSGSNSGDTATLTISRVEAGDEAVYYCQVWESSGDHPRIFGGGTKLTVL
On to B18, for which the “Neut IC50 (ug/ml) subtype B” value in assay [3] was found to be 0.17 µg/mL. Moreover, in assay [1], the “Neut IC50 (ug/ml) subtype A” value was 0.02 µg/mL.
